According to publication doi:10.1101/2021.10.01.462734:
pKd: −log10 of the molar value. “And” between values parts separate entries of the source, which are not always exact repeats. Equal values may be shown once.

Columns and labels:
GFP-mGR Y545A (mouse) = assay: number and brightness
[1] = molecular target: GFP-mGR GR^dim/Y545A double mutant (mouse); assay: number and brightness
[2] = molecular target: ancGR2-LBD Y545C mutant, DEX-bound; assay: cross-linking
[3] = molecular target: ancGR2-LBD Y545C mutant, DEX-bound; assay: SPR
[4] = molecular target: ancGR2-LBD (ancient variant of the glucocorticoid receptor ligand-binding domain), wild type, DEX-bound; assay: cross-linking
[5] = molecular target: ancGR2-LBD (ancient variant of the glucocorticoid receptor ligand-binding domain), wild type, DEX-bound; assay: SPR

Question: Which stoichiometry N (GFP-mGR Y545A (mouse)) does the source give for GFP-mGR Y545A (natural protein) here?
Answer: The stoichiometry N was 4.

Question: How did the stoichiometry N [1] turn out when “GFP-mGR GR^dim/Y545A double mutant (natural protein)” was run?
Answer: Its stoichiometry N is 3.

Question: With “ancGR2-LBD Y545C mutant, DEX-bound (domain or fragment)” as the substance, how does the stoichiometry N [2] read?
Answer: Its stoichiometry N is 2.

Question: What about the kD1 (multisite model, first binding site) [3] of the same substance?
Answer: The kD1 (multisite model, first binding site) was 0.8 µM.

Question: What does the source list for “ancGR2-LBD (ancient variant of the glucocorticoid receptor ligand-binding domain), wild type, DEX-bound (domain or fragment)”?
Answer: stoichiometry N [4]: 2 and 4; pKd [5]: 4.82; kD1 (multisite model, first of two independent binding sites) [5]: 2.2 µM; kD2 (multisite model, second of two independent binding sites) [5]: 27.9 µM
